Results taken from patent publication US20220098307A1 (WUHAN YZY BIOPHARMA, published 2022).

T1: Human BCMA (human, UniProt Q02223 1-54)
T1 sequence: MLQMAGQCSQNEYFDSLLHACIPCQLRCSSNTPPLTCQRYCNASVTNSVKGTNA

B1: M2IC-DG2 (bispecific antibody, human IgG1, kappa)
chain: EVKLDETGGGLVQPGRPMKLSCVASGFTFSDYWMNWVRQSPEKGLEWVAQIRNKPYNYETYYSDSVKGRFTISRDDSKSSVYLQMNNLRVEDMGIYYCTGSYYGMDYWGQGTSVTVSSASTKGPSVFPLAPSSKSTSGGTAALGCLVKDYFPEPVTVSWNSGALTSGVHTFPAVLQSSGLYSLSSVVTVPSSSLGTQTYICNVNHKPSNTKVDKKVEPKSCDKTHTGGGSAAAQVQLVESGGGVVQPGRSLRLSCAASGFTFSTYAMNWVRQAPGKGLEWVARIRSKYNNYATYYADSVKDRFTISRDDSKNTLYLQMNSLRAEDTAVYYCARHGNFGNSYVSWFAYWGQGTLVTVSSGGGGSGGGGSGGGGSQTVVTQEPSLTVSPGGTVTLTCRSSTGAVTTSNYANWVQQKPGQAPRGLIGGTNKRAPGVPARFSGSLLGGKAALTLSGVQPEDEAEYYCALWYSNLWVFGGGTKVEIKGGGGSDKTHTCPPCPAPPVAGPSVFLFPPKPKDTLMISRTPEVTCVVVAVSHEDPEVQFNWYVDGVEVHNAKTKPREEQFNSTFRVVSVLTVVHQDWLNGKEYKCKVSNKGLPAPIEKTISKTKGQPREPQVYTLPPCRDELTKNQVSLWCLVKGFYPSDIAVEWESNGQPENNYKTTPPVLDSDGSFFLYSKLTVDKSRWQQGNVFSCSVMHEALHNHYTQKSLSLSPGK
heavy: EVKLDETGGGLVQPGRPMKLSCVASGFTFSDYWMNWVRQSPEKGLEWVAQIRNKPYNYETYYSDSVKGRFTISRDDSKSSVYLQMNNLRVEDMGIYYCTGSYYGMDYWGQGTSVTVSSASTKGPSVFPLAPSSKSTSGGTAALGCLVKDYFPEPVTVSWNSGALTSGVHTFPAVLQSSGLYSLSSVVTVPSSSLGTQTYICNVNHKPSNTKVDKKVEPKSCDKTHTCPPCPAPPVAGPSVFLFPPKPKDTLMISRTPEVTCVVVAVSHEDPEVQFNWYVDGVEVHNAKTKPREEQFNSTFRVVSVLTVVHQDWLNGKEYKCKVSNKGLPAPIEKTISKTKGQPREPQVCTLPPSRDELTKNQVSLSCAVKGFYPSDIAVEWESNGQPENNYKTTPPVLDSDGSFFLVSKLTVDKSRWQQGNVFSCSVMHEALHNRFTQKSLSLSPGK
light: DVVMTQTPLSLPVSLGDQASISCRSSQSLVHSNGNTYLRWYLQKPGQSPKVLIYKVSNRFSGVPDRFSGSGSGTDFTLKISRVEAEDLGVYFCSQSTHVPWTFGGGTKLEIKRTVAAPSVFIFPPSDEQLKSGTASVVCLLNNFYPREAKVQWKVDNALQSGNSQESVTEQDSKDSTYSLSSTLTLSKADYEKHKVYACEVTHQGLSSPVTKSFNRGEC
notes: structure 2 isotype control; CH2 DG2CH2
B2: M2IC-DG2D (bispecific antibody, human IgG1, kappa)
chain: EVKLDETGGGLVQPGRPMKLSCVASGFTFSDYWMNWVRQSPEKGLEWVAQIRNKPYNYETYYSDSVKGRFTISRDDSKSSVYLQMNNLRVEDMGIYYCTGSYYGMDYWGQGTSVTVSSASTKGPSVFPLAPSSKSTSGGTAALGCLVKDYFPEPVTVSWNSGALTSGVHTFPAVLQSSGLYSLSSVVTVPSSSLGTQTYICNVNHKPSNTKVDKKVEPKSCDKTHTGGGSAAAQVQLVESGGGVVQPGRSLRLSCAASGFTFSTYAMNWVRQAPGKGLEWVARIRSKYNNYATYYADSVKDRFTISRDDSKNTLYLQMNSLRAEDTAVYYCARHGNFGNSYVSWFAYWGQGTLVTVSSGGGGSGGGGSGGGGSQTVVTQEPSLTVSPGGTVTLTCRSSTGAVTTSNYANWVQQKPGQAPRGLIGGTNKRAPGVPARFSGSLLGGKAALTLSGVQPEDEAEYYCALWYSNLWVFGGGTKVEIKGGGGSDKTHTCPPCPAPPVAGPSVFLFPPKPKDTLMISRTPEVTCVVVAVSHEAPEVQFNWYVDGVEVHNAKTKPREEQFNSTFRVVSVLTVVHQDWLNGKEYKCKVSNKGLPAPIEKTISKTKGQPREPQVYTLPPCRDELTKNQVSLWCLVKGFYPSDIAVEWESNGQPENNYKTTPPVLDSDGSFFLYSKLTVDKSRWQQGNVFSCSVMHEALHNHYTQKSLSLSPGK
heavy: EVKLDETGGGLVQPGRPMKLSCVASGFTFSDYWMNWVRQSPEKGLEWVAQIRNKPYNYETYYSDSVKGRFTISRDDSKSSVYLQMNNLRVEDMGIYYCTGSYYGMDYWGQGTSVTVSSASTKGPSVFPLAPSSKSTSGGTAALGCLVKDYFPEPVTVSWNSGALTSGVHTFPAVLQSSGLYSLSSVVTVPSSSLGTQTYICNVNHKPSNTKVDKKVEPKSCDKTHTCPPCPAPPVAGPSVFLFPPKPKDTLMISRTPEVTCVVVAVSHEAPEVQFNWYVDGVEVHNAKTKPREEQFNSTFRVVSVLTVVHQDWLNGKEYKCKVSNKGLPAPIEKTISKTKGQPREPQVCTLPPSRDELTKNQVSLSCAVKGFYPSDIAVEWESNGQPENNYKTTPPVLDSDGSFFLVSKLTVDKSRWQQGNVFSCSVMHEALHNRFTQKSLSLSPGK
light: DVVMTQTPLSLPVSLGDQASISCRSSQSLVHSNGNTYLRWYLQKPGQSPKVLIYKVSNRFSGVPDRFSGSGSGTDFTLKISRVEAEDLGVYFCSQSTHVPWTFGGGTKLEIKRTVAAPSVFIFPPSDEQLKSGTASVVCLLNNFYPREAKVQWKVDNALQSGNSQESVTEQDSKDSTYSLSSTLTLSKADYEKHKVYACEVTHQGLSSPVTKSFNRGEC
notes: structure 2 isotype control; CH2 DG2DCH2
B3: M2IC-G2D (bispecific antibody, human IgG1, kappa)
chain: EVKLDETGGGLVQPGRPMKLSCVASGFTFSDYWMNWVRQSPEKGLEWVAQIRNKPYNYETYYSDSVKGRFTISRDDSKSSVYLQMNNLRVEDMGIYYCTGSYYGMDYWGQGTSVTVSSASTKGPSVFPLAPSSKSTSGGTAALGCLVKDYFPEPVTVSWNSGALTSGVHTFPAVLQSSGLYSLSSVVTVPSSSLGTQTYICNVNHKPSNTKVDKKVEPKSCDKTHTGGGSAAAQVQLVESGGGVVQPGRSLRLSCAASGFTFSTYAMNWVRQAPGKGLEWVARIRSKYNNYATYYADSVKDRFTISRDDSKNTLYLQMNSLRAEDTAVYYCARHGNFGNSYVSWFAYWGQGTLVTVSSGGGGSGGGGSGGGGSQTVVTQEPSLTVSPGGTVTLTCRSSTGAVTTSNYANWVQQKPGQAPRGLIGGTNKRAPGVPARFSGSLLGGKAALTLSGVQPEDEAEYYCALWYSNLWVFGGGTKVEIKGGGGSDKTHTCPPCPAPPVAGPSVFLFPPKPKDTLMISRTPEVTCVVVDVSHEAPEVQFNWYVDGVEVHNAKTKPREEQFNSTFRVVSVLTVVHQDWLNGKEYKCKVSNKGLPAPIEKTISKTKGQPREPQVYTLPPCRDELTKNQVSLWCLVKGFYPSDIAVEWESNGQPENNYKTTPPVLDSDGSFFLYSKLTVDKSRWQQGNVFSCSVMHEALHNHYTQKSLSLSPGK
heavy: EVKLDETGGGLVQPGRPMKLSCVASGFTFSDYWMNWVRQSPEKGLEWVAQIRNKPYNYETYYSDSVKGRFTISRDDSKSSVYLQMNNLRVEDMGIYYCTGSYYGMDYWGQGTSVTVSSASTKGPSVFPLAPSSKSTSGGTAALGCLVKDYFPEPVTVSWNSGALTSGVHTFPAVLQSSGLYSLSSVVTVPSSSLGTQTYICNVNHKPSNTKVDKKVEPKSCDKTHTCPPCPAPPVAGPSVFLFPPKPKDTLMISRTPEVTCVVVDVSHEAPEVQFNWYVDGVEVHNAKTKPREEQFNSTFRVVSVLTVVHQDWLNGKEYKCKVSNKGLPAPIEKTISKTKGQPREPQVCTLPPSRDELTKNQVSLSCAVKGFYPSDIAVEWESNGQPENNYKTTPPVLDSDGSFFLVSKLTVDKSRWQQGNVFSCSVMHEALHNRFTQKSLSLSPGK
light: DVVMTQTPLSLPVSLGDQASISCRSSQSLVHSNGNTYLRWYLQKPGQSPKVLIYKVSNRFSGVPDRFSGSGSGTDFTLKISRVEAEDLGVYFCSQSTHVPWTFGGGTKLEIKRTVAAPSVFIFPPSDEQLKSGTASVVCLLNNFYPREAKVQWKVDNALQSGNSQESVTEQDSKDSTYSLSSTLTLSKADYEKHKVYACEVTHQGLSSPVTKSFNRGEC
notes: structure 2 isotype control; CH2 G2DCH2

What was measured:
Human CD3ε = target: T2, Human CD3ε (human, UniProt P07766 23-126); assay: flow cytometry, human T cells
T2 construct: CD3 on T cells isolated from human whole blood
Outline: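 First, cells were plated on ice at 2×10⁵ per well; second, antibody dilutions (top 3000 nM, 3-fold steps) were added for 2 h at 4° C; third, after washing, PE anti-human IgG Fc (final 8 ug/ml) was added for 1 h at 4° C. EC50 was then fitted from MFI versus concentration.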

Monkey CD3 = target: T3, Monkey CD3 (monkey); assay: flow cytometry, monkey T cells
T3 construct: whole, on cells; also called CD3 of monkey CD3 positive T cells

Human BCMA = target: T1, Human BCMA; assay: flow cytometry, human tumor cells (table of the BCMA series)
Description: 1) Cell preparation: T cells isolated from CD3-positive human whole blood were used for a CD3 end affinity detection of multifunctional antibody molecule; positive tumor cells of corresponding antigen were used for detecting affinity of tumor antigen; for example, CD38-positive MM. 1S cells (purchased from the Cell Resource Center of Shanghai Institutes for Biological Sciences, Chinese Academy of Sciences) or RPMI 8226 cells (purchased from the Cell Resource Center of Shanghai Institutes for Biological Sciences, Chinese Academy of Sciences) were used for CD38 antigen detection, and PD-L1 positive H358 cells (purchased from the Cell Resource Center of Shanghai Institutes for Biological Sciences, Chinese Academy of Sciences) were used for PD-L1 antigen detection, and so on. The cells were resuspended with 1% FBS-PBS, adjusted to a density of 4×10⁶/ml, and 50 μl of cells were taken from each well, and then plated at 2×10⁵ per well. Cell plating was operated on ice
2) Addition of the antibody: according to the experimental design, the antibody was diluted gradually, and dilution of antibody was operated on ice. For example, the initial concentration of antibody for dilution was 3000 nM, and the antibody was diluted by 3 times with 11 concentration gradients. The diluted antibody was added to a cell well at 50 μl per well, mixed well, and shaked and incubated at 4° C. 1100 rpm/min for 2 h; after washing, the cells were resuspend in 1% FBS-PBS, and a diluted secondary antibody PE anti-human IgG FC (Biolegend, 409304) was added with a final concentration of 8 ug/ml and a volume of 50 μl/well. At the same time, a well only added with cells and secondary antibody was set as a control, the components were mixed well, and incubated under shaking at 1100 rpm/min at 4° C. for 1 h;
5) Data analysis: the data was analyzed by a flow analysis software FlowJo 7.6 thereby obtaining an average fluorescence intensity of the specific antibody concentration, plotted by a Graphpad Prism 5 with the antibody concentration (nM) as an abscissa and the average fluorescence intensity as an ordinate; the EC50 value was calculated by the method of One site—Specific binding, and the EC50 value indicated the cell affinity of the antibody to the corresponding target antigen.

Binder	EC50 (Human CD3ε) [nM]	EC50 (Monkey CD3) [nM]	binding result (Human BCMA)
B1	357	570	no binding
B2	452	519	no binding
B3	367	538	no binding
